Article PMC10899632, “Archaeal histone-based chromatin structures regulate transcription elongation rates” (Communications Biology, 2024)

Molecular target: the molecule itself
Assay: SDS-PAGE and Western blot of the purified protein; 1 ug purified histone on 16.5% Tris-Tricine SDS gels, Coomassie stain or Western blot with polyclonal anti-HTkA antibodies; dimers and higher-order species persist after extensive heating

B1: Thermococcus kodakarensis histone A protein (HTkA^WT) (natural protein)
chain: not shown
notes: Histone A (HTkA) of Thermococcus kodakarensis, encoded by TK1413 on plasmid pTS600; No tag is mentioned; purified by heparin and size exclusion; also called TK1413; recombinant HTkA; source: E. coli Rosetta 2 (DE3), purified (heat treatment, HiTrap Heparin, Sephacryl S-100)
- binding result: binds
